For 2 substances, Km results are on record in patent publication US7150969B2, “Alternatively spliced isoform of acetyl-CoA carboxylase 2 (ACC2)” (Rosetta Inpharmatics LLC, priority 2004, dated 2006).

The series concerns CC(=O)SCCNC(=O)CCNC(=O)[C@H](O)C(C)(C)COP(=O)(O)OP(=O)(O)OC[C@H]1O[C@@H](n2cnc3c(N)ncnc32)[C@H](O)[C@@H]1OP(=O)(O)O. Briefly: purified protein, by the assay type. The conditions noted are these: other: 37° C., 40 minutes, pH 7.5, 20 mM citrate.

On to ACC1 (Homo sapiens), for which the Km (usually the concentration of substrate that gives half-maximal velocity) was determined as 51 µM. In the case of ACC2 (Homo sapiens), the Michaelis constant (Km) turned out to be 108 µM.
